Patent US20210032299A1
Starred links: 1 amine or outer side, 2 acyl side, 3 side chain; linkers in the order of their positions; H or OH if unused. Non-standard residues stand in square brackets, D forms with d. Groups on a side chain read outwards from the residue. No end group written: not given here. *: point of attachment. C20 diacid = O=C(O)CCCCCCCCCCCCCCCCCCC(=O)*; αMePhe(2-F) = C[C@](N)(Cc1ccccc1F)C(=O)O; γGlu = O=C(O)[C@H](CCC(=O)[*:2])N[*:1]; 4Pal = N[C@@H](Cc1ccncc1)C(=O)O; αMeL = CC(C)C[C@](C)(N)C(=O)O; Orn = NCCC[C@H](N)C(=O)O; AEEA = NCCOCCOCC(=O)O; Aib = CC(C)(N)C(=O)O

How the values were obtained:
[1] = molecular target: T1, human glucose-dependent insulinotropic polypeptide (GIP) receptor (human), P48546; experiment: SPA, displacement of [125I]-GIP from hGIPR membranes, 0.1% bacitracin
T1 chain: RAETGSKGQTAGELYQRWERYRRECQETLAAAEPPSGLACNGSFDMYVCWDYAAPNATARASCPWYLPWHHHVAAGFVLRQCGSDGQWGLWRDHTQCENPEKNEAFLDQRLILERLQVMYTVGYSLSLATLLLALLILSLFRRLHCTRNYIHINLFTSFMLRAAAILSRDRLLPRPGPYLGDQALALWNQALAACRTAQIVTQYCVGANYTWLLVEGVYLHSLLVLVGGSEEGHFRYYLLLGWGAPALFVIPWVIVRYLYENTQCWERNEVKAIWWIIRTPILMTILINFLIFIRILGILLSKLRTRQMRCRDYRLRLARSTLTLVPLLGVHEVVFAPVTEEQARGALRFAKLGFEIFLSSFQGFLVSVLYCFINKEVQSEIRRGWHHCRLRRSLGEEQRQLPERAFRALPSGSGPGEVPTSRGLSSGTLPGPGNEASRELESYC

[2] = molecular target: human glucagon receptor (human), P47871; experiment: SPA, displacement of [125I]-Gcg from hGcgR membranes, 0.1% bacitracin
Chain of human glucagon receptor (human), P47871 (P47871 26-477): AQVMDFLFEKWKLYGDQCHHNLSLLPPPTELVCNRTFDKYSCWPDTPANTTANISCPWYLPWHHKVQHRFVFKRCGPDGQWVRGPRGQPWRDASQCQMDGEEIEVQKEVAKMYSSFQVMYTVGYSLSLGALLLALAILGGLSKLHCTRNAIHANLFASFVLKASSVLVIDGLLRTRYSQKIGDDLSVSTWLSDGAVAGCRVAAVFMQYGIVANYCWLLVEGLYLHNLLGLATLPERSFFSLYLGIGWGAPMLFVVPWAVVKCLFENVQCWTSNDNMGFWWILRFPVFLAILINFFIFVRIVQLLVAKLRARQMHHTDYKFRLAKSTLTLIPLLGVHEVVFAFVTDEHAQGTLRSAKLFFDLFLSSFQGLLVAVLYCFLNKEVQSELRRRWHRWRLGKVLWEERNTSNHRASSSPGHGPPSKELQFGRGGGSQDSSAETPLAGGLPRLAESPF

Row | Binder | Ki [1] | Ki [2]
1 | Y[Aib]EGTFISDYSI[αMeL]LDKIRQ[Aib]DFVEYK([AEEA-AEEA-γGlu-C20 diacid])LEGGPSSGAPPPS-NH2 (N-terminus assumed; SMILES CC[C@H](C)[C@H](NC(=O)[C@H](CCCCN)NC(=O)[C@H](CC(=O)O)NC(=O)[C@H](CC(C)C)NC(=O)[C@](C)(CC(C)C)NC(=O)[C@@H](NC(=O)[C@H](CO)NC(=O)[C@H](Cc1ccc(O)cc1)NC(=O)[C@H](CC(=O)O)NC(=O)[C@H](CO)NC(=O)[C@@H](NC(=O)[C@H](Cc1ccccc1)NC(=O)[C@@H](NC(=O)CNC(=O)[C@H](CCC(=O)O)NC(=O)C(C)(C)NC(=O)[C@@H](N)Cc1ccc(O)cc1)[C@@H](C)O)[C@@H](C)CC)[C@@H](C)CC)C(=O)N[C@@H](CCCNC(=N)N)C(=O)N[C@@H](CCC(N)=O)C(=O)NC(C)(C)C(=O)N[C@@H](CC(=O)O)C(=O)N[C@@H](Cc1ccccc1)C(=O)N[C@H](C(=O)N[C@@H](CCC(=O)O)C(=O)N[C@@H](Cc1ccc(O)cc1)C(=O)N[C@@H](CCCCNC(=O)COCCOCCNC(=O)COCCOCCNC(=O)CC[C@H](NC(=O)CCCCCCCCCCCCCCCCCCC(=O)O)C(=O)O)C(=O)N[C@@H](CC(C)C)C(=O)N[C@@H](CCC(=O)O)C(=O)NCC(=O)NCC(=O)N1CCC[C@H]1C(=O)N[C@@H](CO)C(=O)N[C@@H](CO)C(=O)NCC(=O)N[C@@H](C)C(=O)N1CCC[C@H]1C(=O)N1CCC[C@H]1C(=O)N1CCC[C@H]1C(=O)N[C@@H](CO)C(N)=O)C(C)C) [Example 115] | 0.0997 nM | 373 nM
2 | Y[Aib]EGT[αMePhe(2-F)]ISDYSIALDKIHQ[Aib]DFVE[4Pal]K([AEEA-AEEA-γGlu-C20 diacid])LEGGPSSGAPPPS-NH2 (N-terminus assumed; SMILES CC[C@H](C)[C@H](NC(=O)[C@H](CO)NC(=O)[C@H](Cc1ccc(O)cc1)NC(=O)[C@H](CC(=O)O)NC(=O)[C@H](CO)NC(=O)[C@@H](NC(=O)[C@](C)(Cc1ccccc1F)NC(=O)[C@@H](NC(=O)CNC(=O)[C@H](CCC(=O)O)NC(=O)C(C)(C)NC(=O)[C@@H](N)Cc1ccc(O)cc1)[C@@H](C)O)[C@@H](C)CC)C(=O)N[C@@H](C)C(=O)N[C@@H](CC(C)C)C(=O)N[C@@H](CC(=O)O)C(=O)N[C@@H](CCCCN)C(=O)N[C@H](C(=O)N[C@@H](Cc1c[nH]cn1)C(=O)N[C@@H](CCC(N)=O)C(=O)NC(C)(C)C(=O)N[C@@H](CC(=O)O)C(=O)N[C@@H](Cc1ccccc1)C(=O)N[C@H](C(=O)N[C@@H](CCC(=O)O)C(=O)N[C@@H](Cc1ccncc1)C(=O)N[C@@H](CCCCNC(=O)COCCOCCNC(=O)COCCOCCNC(=O)CC[C@H](NC(=O)CCCCCCCCCCCCCCCCCCC(=O)O)C(=O)O)C(=O)N[C@@H](CC(C)C)C(=O)N[C@@H](CCC(=O)O)C(=O)NCC(=O)NCC(=O)N1CCC[C@H]1C(=O)N[C@@H](CO)C(=O)N[C@@H](CO)C(=O)NCC(=O)N[C@@H](C)C(=O)N1CCC[C@H]1C(=O)N1CCC[C@H]1C(=O)N1CCC[C@H]1C(=O)N[C@@H](CO)C(N)=O)C(C)C)[C@@H](C)CC) [Example 112] | 0.0742 nM | 257 nM
3 | Y[Aib]EGTFISDYSI[αMeL]LD[Orn]IRQ[Aib]DFVEYK([AEEA-AEEA-γGlu-C20 diacid])LEGGPSSGAPPPS-NH2 (N-terminus assumed; SMILES CC[C@H](C)[C@H](NC(=O)[C@H](CCCN)NC(=O)[C@H](CC(=O)O)NC(=O)[C@H](CC(C)C)NC(=O)[C@](C)(CC(C)C)NC(=O)[C@@H](NC(=O)[C@H](CO)NC(=O)[C@H](Cc1ccc(O)cc1)NC(=O)[C@H](CC(=O)O)NC(=O)[C@H](CO)NC(=O)[C@@H](NC(=O)[C@H](Cc1ccccc1)NC(=O)[C@@H](NC(=O)CNC(=O)[C@H](CCC(=O)O)NC(=O)C(C)(C)NC(=O)[C@@H](N)Cc1ccc(O)cc1)[C@@H](C)O)[C@@H](C)CC)[C@@H](C)CC)C(=O)N[C@@H](CCCNC(=N)N)C(=O)N[C@@H](CCC(N)=O)C(=O)NC(C)(C)C(=O)N[C@@H](CC(=O)O)C(=O)N[C@@H](Cc1ccccc1)C(=O)N[C@H](C(=O)N[C@@H](CCC(=O)O)C(=O)N[C@@H](Cc1ccc(O)cc1)C(=O)N[C@@H](CCCCNC(=O)COCCOCCNC(=O)COCCOCCNC(=O)CC[C@H](NC(=O)CCCCCCCCCCCCCCCCCCC(=O)O)C(=O)O)C(=O)N[C@@H](CC(C)C)C(=O)N[C@@H](CCC(=O)O)C(=O)NCC(=O)NCC(=O)N1CCC[C@H]1C(=O)N[C@@H](CO)C(=O)N[C@@H](CO)C(=O)NCC(=O)N[C@@H](C)C(=O)N1CCC[C@H]1C(=O)N1CCC[C@H]1C(=O)N1CCC[C@H]1C(=O)N[C@@H](CO)C(N)=O)C(C)C) [Example 116] | 0.166 nM | 178 nM
4 | Y[Aib]EGT[αMePhe(2-F)]ISDYSILLDKIHQ[Aib]DFVE[4Pal]K([AEEA-AEEA-γGlu-C20 diacid])LEAGPSSGAPPPS-NH2 (N-terminus assumed; SMILES CC[C@H](C)[C@H](NC(=O)[C@H](CO)NC(=O)[C@H](Cc1ccc(O)cc1)NC(=O)[C@H](CC(=O)O)NC(=O)[C@H](CO)NC(=O)[C@@H](NC(=O)[C@](C)(Cc1ccccc1F)NC(=O)[C@@H](NC(=O)CNC(=O)[C@H](CCC(=O)O)NC(=O)C(C)(C)NC(=O)[C@@H](N)Cc1ccc(O)cc1)[C@@H](C)O)[C@@H](C)CC)C(=O)N[C@@H](CC(C)C)C(=O)N[C@@H](CC(C)C)C(=O)N[C@@H](CC(=O)O)C(=O)N[C@@H](CCCCN)C(=O)N[C@H](C(=O)N[C@@H](Cc1c[nH]cn1)C(=O)N[C@@H](CCC(N)=O)C(=O)NC(C)(C)C(=O)N[C@@H](CC(=O)O)C(=O)N[C@@H](Cc1ccccc1)C(=O)N[C@H](C(=O)N[C@@H](CCC(=O)O)C(=O)N[C@@H](Cc1ccncc1)C(=O)N[C@@H](CCCCNC(=O)COCCOCCNC(=O)COCCOCCNC(=O)CC[C@H](NC(=O)CCCCCCCCCCCCCCCCCCC(=O)O)C(=O)O)C(=O)N[C@@H](CC(C)C)C(=O)N[C@@H](CCC(=O)O)C(=O)N[C@@H](C)C(=O)NCC(=O)N1CCC[C@H]1C(=O)N[C@@H](CO)C(=O)N[C@@H](CO)C(=O)NCC(=O)N[C@@H](C)C(=O)N1CCC[C@H]1C(=O)N1CCC[C@H]1C(=O)N1CCC[C@H]1C(=O)N[C@@H](CO)C(N)=O)C(C)C)[C@@H](C)CC) [Example 120] | 0.171 nM | 575 nM
5 | Y[Aib]EGT[αMePhe(2-F)]ISDYSIALDKIHQ[Aib]DFVE[4Pal]K([AEEA-AEEA-γGlu-C20 diacid])LEAGPSSGAPPPS-NH2 (N-terminus assumed; SMILES CC[C@H](C)[C@H](NC(=O)[C@H](CO)NC(=O)[C@H](Cc1ccc(O)cc1)NC(=O)[C@H](CC(=O)O)NC(=O)[C@H](CO)NC(=O)[C@@H](NC(=O)[C@](C)(Cc1ccccc1F)NC(=O)[C@@H](NC(=O)CNC(=O)[C@H](CCC(=O)O)NC(=O)C(C)(C)NC(=O)[C@@H](N)Cc1ccc(O)cc1)[C@@H](C)O)[C@@H](C)CC)C(=O)N[C@@H](C)C(=O)N[C@@H](CC(C)C)C(=O)N[C@@H](CC(=O)O)C(=O)N[C@@H](CCCCN)C(=O)N[C@H](C(=O)N[C@@H](Cc1c[nH]cn1)C(=O)N[C@@H](CCC(N)=O)C(=O)NC(C)(C)C(=O)N[C@@H](CC(=O)O)C(=O)N[C@@H](Cc1ccccc1)C(=O)N[C@H](C(=O)N[C@@H](CCC(=O)O)C(=O)N[C@@H](Cc1ccncc1)C(=O)N[C@@H](CCCCNC(=O)COCCOCCNC(=O)COCCOCCNC(=O)CC[C@H](NC(=O)CCCCCCCCCCCCCCCCCCC(=O)O)C(=O)O)C(=O)N[C@@H](CC(C)C)C(=O)N[C@@H](CCC(=O)O)C(=O)N[C@@H](C)C(=O)NCC(=O)N1CCC[C@H]1C(=O)N[C@@H](CO)C(=O)N[C@@H](CO)C(=O)NCC(=O)N[C@@H](C)C(=O)N1CCC[C@H]1C(=O)N1CCC[C@H]1C(=O)N1CCC[C@H]1C(=O)N[C@@H](CO)C(N)=O)C(C)C)[C@@H](C)CC) [Example 113] | 0.108 nM | 821 nM
